Test results as given in IntAct's records for PubMed 36096339.

Assays:
1433e_human YWHAE = 1433e_human YWHAE (UniProt P62258)
1433b_human YWHAB = 1433b_human YWHAB (UniProt P31946)
1433f_human YWHAH = 1433f_human YWHAH (UniProt Q04917)
1433t_human YWHAQ = 1433t_human YWHAQ (UniProt P27348)
1433g_human YWHAG = 1433g_human YWHAG (UniProt P61981)
1433z_human YWHAZ = 1433z_human YWHAZ (UniProt P63104)
Sequence of UniProt P63104 (P63104 whole entry): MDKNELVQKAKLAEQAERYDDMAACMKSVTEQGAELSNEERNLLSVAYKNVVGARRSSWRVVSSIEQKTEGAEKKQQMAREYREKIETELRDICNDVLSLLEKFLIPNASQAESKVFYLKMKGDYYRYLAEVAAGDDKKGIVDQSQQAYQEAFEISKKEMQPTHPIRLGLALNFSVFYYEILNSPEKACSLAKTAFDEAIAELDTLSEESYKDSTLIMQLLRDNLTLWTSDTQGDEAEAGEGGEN

Sequence of UniProt P61981 (P61981 whole entry): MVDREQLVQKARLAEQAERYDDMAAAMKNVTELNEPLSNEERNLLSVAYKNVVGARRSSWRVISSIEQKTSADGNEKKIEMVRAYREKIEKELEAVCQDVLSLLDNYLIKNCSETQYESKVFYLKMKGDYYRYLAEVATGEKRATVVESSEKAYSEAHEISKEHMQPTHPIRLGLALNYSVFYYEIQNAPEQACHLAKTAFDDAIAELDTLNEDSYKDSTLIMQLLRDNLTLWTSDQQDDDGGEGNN
Sequence of UniProt Q04917 (Q04917 whole entry): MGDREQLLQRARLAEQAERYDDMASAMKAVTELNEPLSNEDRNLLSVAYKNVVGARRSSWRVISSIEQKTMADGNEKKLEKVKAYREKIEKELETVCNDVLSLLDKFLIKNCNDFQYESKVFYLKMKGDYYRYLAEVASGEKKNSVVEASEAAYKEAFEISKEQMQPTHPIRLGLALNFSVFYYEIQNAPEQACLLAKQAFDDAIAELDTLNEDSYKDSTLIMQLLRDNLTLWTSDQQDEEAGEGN
Sequence of UniProt P31946 (P31946 whole entry): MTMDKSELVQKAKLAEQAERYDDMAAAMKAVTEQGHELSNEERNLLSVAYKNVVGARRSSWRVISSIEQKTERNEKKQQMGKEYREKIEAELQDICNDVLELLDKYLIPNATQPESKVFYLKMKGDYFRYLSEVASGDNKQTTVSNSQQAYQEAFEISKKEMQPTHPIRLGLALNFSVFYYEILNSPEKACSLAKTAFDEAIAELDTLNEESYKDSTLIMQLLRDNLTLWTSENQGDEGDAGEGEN
Sequence of UniProt P27348 (P27348 whole entry): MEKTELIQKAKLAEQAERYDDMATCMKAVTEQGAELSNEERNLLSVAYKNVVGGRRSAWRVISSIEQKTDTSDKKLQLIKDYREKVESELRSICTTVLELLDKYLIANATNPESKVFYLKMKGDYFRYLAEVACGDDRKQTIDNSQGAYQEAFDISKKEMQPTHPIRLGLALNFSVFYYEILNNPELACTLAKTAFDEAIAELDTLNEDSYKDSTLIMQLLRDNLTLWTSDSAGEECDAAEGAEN
Sequence of UniProt P62258 (P62258 whole entry): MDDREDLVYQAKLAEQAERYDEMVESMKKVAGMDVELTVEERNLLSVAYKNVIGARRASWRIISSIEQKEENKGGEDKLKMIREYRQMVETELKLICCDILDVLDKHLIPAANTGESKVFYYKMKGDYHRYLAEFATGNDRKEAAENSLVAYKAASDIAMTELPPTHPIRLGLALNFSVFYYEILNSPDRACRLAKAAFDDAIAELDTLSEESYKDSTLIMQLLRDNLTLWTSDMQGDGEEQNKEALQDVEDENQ

Spatacsin (Homo sapiens), Q96JI7 S1955A
effect of a mutation on the interaction (1433e_human YWHAE): with no effect
effect of a mutation on the interaction (1433b_human YWHAB): decreasing interaction strength
effect of a mutation on the interaction (1433f_human YWHAH): decreasing interaction strength
effect of a mutation on the interaction (1433t_human YWHAQ): decreasing interaction strength
effect of a mutation on the interaction (1433g_human YWHAG): decreasing interaction strength
effect of a mutation on the interaction (1433z_human YWHAZ): decreasing interaction strength
